# B1: purified His-tagged human SIRT2 (enzyme, UniProt Q8IXJ6 1-389, looked up)
# chain: MAEPDPSHPLETQAGKVQEAQDSDSDSEGGAAGGEADMDFLRNLFSQTLSLGSQKERLLDELTLEGVARYMQSERCRRVICLVGAGISTSAGIPDFRSPSTGLYDNLEKYHLPYPEAIFEISYFKKHPEPFFALAKELYPGQFKPTICHYFMRLLKDKGLLLRCYTQNIDTLERIAGLEQEDLVEAHGTFYTSHCVSASCRHEYPLSWMKEKIFSEVTPKCEDCQSLVKPDIVFFGESLPARFFSCMQSDFLKVDLLLVMGTSLQVQPFASLISKAPLSTPRLLINKEKAGQSDPFLGMIMGLGGGMDFDSKKAYRDVAWLGECDQGCLALAELLGWKKELEDLVRREHASIDAQSGAGVPNPSTSASPKKSPPPAKDEARTTEREKPQ
# notes: The SIRT2 of the deacetylase assay is called only 'recombinant human SIRT2'; it may have come from the CycLex kit; also called recombinant SIRT2; His-tagged SIRT2; not shown: His tag, C-terminal, kept
# Target: T1, GST-SerRS fusion protein (full-length human SerRS) (human, UniProt P49591 1-514)
# T1 construct: also called GST-tagged SerRS
# T1 sequence (P49591 whole entry, the tested form may be a part): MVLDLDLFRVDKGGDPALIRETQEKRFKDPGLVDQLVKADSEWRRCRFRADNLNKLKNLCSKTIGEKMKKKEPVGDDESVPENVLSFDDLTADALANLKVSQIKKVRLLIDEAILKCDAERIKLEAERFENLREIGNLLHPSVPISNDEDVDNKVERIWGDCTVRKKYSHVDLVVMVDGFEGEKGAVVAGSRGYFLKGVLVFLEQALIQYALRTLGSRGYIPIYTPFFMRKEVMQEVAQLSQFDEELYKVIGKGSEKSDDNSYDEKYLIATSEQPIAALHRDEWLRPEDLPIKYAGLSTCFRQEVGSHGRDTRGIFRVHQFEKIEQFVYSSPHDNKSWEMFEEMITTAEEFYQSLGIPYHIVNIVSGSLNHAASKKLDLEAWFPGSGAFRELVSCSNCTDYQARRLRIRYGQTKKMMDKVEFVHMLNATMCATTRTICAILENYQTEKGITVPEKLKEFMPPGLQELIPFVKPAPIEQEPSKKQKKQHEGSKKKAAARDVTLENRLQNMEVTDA
# Test: pull-down; GST or GST-SerRS fusion proteins (full-length or domain fragments) incubated with recombinant His-tagged SIRT2 for two hours and pulled down on Glutathione-Sepharose 4B; 20 mM HEPES pH 7.9, 150 mM NaCl, 0.5 mM EDTA, 10% glycerol, 0.1% Triton X-100, 1 mM DTT; SIRT2 detected with anti-His6
# Details: both partners purified
binder,measurement,value
B1,binding result,binds

# Reference: PMC4057782, “tRNA synthetase counteracts c-Myc to develop functional vasculature” (eLife, 2014)
